B1: YKR001C (protein, UniProt P21576 1-704, looked up)
Vacuolar protein …: MDEHLISTINKLQDALAPLGGGSQSPIDLPQITVVGSQSSGKSSVLENIVGRDFLPRGTGIVTRRPLVLQLINRRPKKSEHAKVNQTANELIDLNINDDDKKKDESGKHQNEGQSEDNKEEWGEFLHLPGKKFYNFDEIRKEIVKETDKVTGANSGISSVPINLRIYSPHVLTLTLVDLPGLTKVPVGDQPPDIERQIKDMLLKYISKPNAIILSVNAANTDLANSDGLKLAREVDPEGTRTIGVLTKVDLMDQGTDVIDILAGRVIPLRYGYIPVINRGQKDIEHKKTIREALENERKFFENHPSYSSKAHYCGTPYLAKKLNSILLHHIRQTLPEIKAKIEATLKKYQNELINLGPETMDSASSVVLSMITDFSNEYAGILDGEAKELSSQELSGGARISYVFHETFKNGVDSLDPFDQIKDSDIRTIMYNSSGSAPSLFVGTEAFEVLVKQQIRRFEEPSLRLVTLVFDELVRMLKQIISQPKYSRYPALREAISNQFIQFLKDATIPTNEFVVDIIKAEQTYINTAHPDLLKGSQAMVMVEEKLHPRQVAVDPKTGKPLPTQPSSSKAPVMEEKSGFFGGFFSTKNKKKLAALESPPPVLKATGQMTERETMETEVIKLLISSYFSIVKRTIADIIPKALMLKLIVKSKTDIQKVLLEKLYGKQDIEELTKENDITIQRRKECKKMVEILRNASQIVSSV
B2: YNL084C (protein, UniProt P39013 1-349, looked up)
Actin cytoskeleton-regulatory …: MPKLEQFEIKKYWQIFSGLKPIENKVNHDQVLPILYNSKLDSSVLNKIWFLADIDDDDNLDFEEFVICMRLIFDMVNKNISSVPDELPDWLIPGSKVNLIKERKKRKQIENADLPPKKEIKVDWYMSPDDLNQYEKIYNSCAKLTDGTITFNELSTKLSTKFFNISKTDLNKVWSLINPQNLPSIDRDPTFYFIHCLRQRNDLGAEIPASLPNSLAEVCNKKQLSYDLRSSQPPTKRKEEANEVDNLRDNGQNSSSDSSGSNVLSNEDSIKQKYASLTDDQVANMREQLEGLLNYKKSEKTQGGSKLSKRINIRSITDDLDNIEQQVEVLENYLNNKRHELQALQAEIN
B3: YLR206W (protein, UniProt Q05785 1-613, looked up)
Epsin-2: MSKQFVRSAKNMMKGYSSTQVLVRDATANDSRTPSIDTLDDLAQRSYDSVDFFEIMDMLDKRLNDKGKYWRHVAKSLTVLDYLVRFGSENCVLWCRENFYVIKTLREFRHENESGFDEGQIIRVKAKELVSLLNDEERLREERSMNTRNRRANRAARPRPRRQRTRSNPHDSSPSYQDDLEKALEESRITAQEDEQRRRELAQYDDEDPDFQAALQLSKEEEELKQLQELQRLQKQQQSLSQFQAPLQQQQPQQQPAYYDIFGNPISQDEYLQYQYQQDQEQAMAQQRWLDQQQEQQQLAEQQYFQQQQQAAAAASALQQQQTAANMQQQQQQPADFQQPLPTGSNNPFSMDNLERQKQEQQHAQLQRQQEEARQQQEQLKLQQLQRQQQEEAQLHQKRQEEAQLQQQQAQLLQQQAQFQQQQPLKQTRTGNQSISDKYSDLNTLLATGTGIDTFGNTGEARIPAQHTKTGTFINSQGTGYKQVTNEPKNNPFLSNQYTGLPSTNIVPTQTGYGFGNQPQSPPTNSPQQNPTGISYSQPQQQQQPQQQPQYMQNFQQQQPQYAQNFQQQPQYTQNYQQQPQYIQPHQQQQQQQQQQQQQQGYTPDQGVSLIDL
B4: YML035C (protein, UniProt P15274 1-810, looked up)
AMP deaminase: MDNQATQRLNDLSLEPAPSHDEQDGSGLVIDIDQRKIGDEQAGVVVDDETPPLEQQDSHESLAADSRNANFSYHENQQLLENGTKQLALDEHDSHSAILEQPSHSTNCSSSNIAAMNKGHDSADHASQNSGGKPRTLSASAQHILPETLKSFAGAPVVNKQVRTSASYKMGMLADDASQQFLDDPSSELIDLYSKVAECRNLRAKYQTISVQNDDQNPKNKPGWVVYPPPPKPSYNSDTKTVVPVTNKPDAEVFDFTKCEIPGEDPDWEFTLNDDDSYVVHRSGKTDELIAQIPTLRDYYLDLEKMISISSDGPAKSFAYRRLQYLEARWNLYYLLNEYQETSVSKRNPHRDFYNVRKVDTHVHHSACMNQKHLLRFIKHKLRHSKDEKVIFRDGKLLTLDEVFRSLHLTGYDLSIDTLDMHAHKDTFHRFDKFNLKYNPIGESRLREIFLKTNNYIKGTYLADITKQVIFDLENSKYQNCEYRISVYGRSLDEWDKLASWVIDNKVISHNVRWLVQIPRLYDIYKKTGIVQSFQDICKNLFQPLFEVTKNPQSHPKLHVFLQRVIGFDSVDDESKVDRRFHRKYPKPSLWEAPQNPPYSYYLYYLYSNVASLNQWRAKRGFNTLVLRPHCGEAGDPEHLVSAYLLAHGISHGILLRKVPFVQYLYYLDQVGIAMSPLSNNALFLTYDKNPFPRYFKRGLNVSLSTDDPLQFSYTREPLIEEYSVAAQIYKLSNVDMCELARNSVLQSGWEAQIKKHWIGKDFDKSGVEGNDVVRTNVPDIRINYRYDTLSTELELVNHFANFKRTIEEK

Assays:
[1] = test system: 575 putative partners (preys) of 22 WT SH3-containing proteins; test: DHFR-PCA on solid medium, WT and SH3-deleted baits (Fig. 1B); format: cell-based, Saccharomyces cerevisiae; parameters: key to Score: 0: SH3-independent; 1: SH3-dependent PPIs; 2: SH3-inhibited PPIs; details: for medrep (log2 median colony size normalized to plate background, PCA score): label = prey; for Ratio (SH3-deleted/WT medrep): only significant differences shown, PPIs completely lost have a ratio of 0.1, gained PPIs 2.5
From the text: To assess the requirement of SH3 domains for PPIs in vivo, we first measured binary interactions between 22 WT SH3-containing proteins (Supplementary Fig. 1A) as baits and 575 putative partners from their interconnected signaling networks using the dihydrofolate reductase protein–fragment complementation assay (DHFR-PCA) in the budding yeast Saccharomyces cerevisiae. About 33% (202/607) of the PPIs detected were described before, mostly by direct methods (Supplementary Fig. 1B, C)[11]. We repeated the experiments with baits in which the SH3s were individually replaced with a flexible linker by genome editing (SH3 domain deletion/stuffing, Fig. 1A). The stuffer DNA sequence ([…]) codes for a small flexible poly-Gly with Ser peptide ([…]) that is inspired by previous experiments[12],[13]. About a third of the SH3-containing protein interactome is qualitatively or quantitatively SH3-dependent (171 PPIs out of 607, Fig. 1B and Supplementary Fig. 1B, C). We validated the vast majority of the quantitative changes in low-throughput experiments and excluded that this is simply due to changes in protein abundance in most cases (Supplementary Fig. 1D–G). SH3-binding motifs[14] are more frequent in the SH3-dependent PPI partners when compared to sequences from random proteins, SH3-independent PPI partners or PPI partners that are stronger or gained following SH3 deletions (p values = 1.5 × 10^−17, 0.0038 and 2.1 × 10^−08, respectively; Mann–Whitney test, one-tailed, Fig. 1C). The changes we measure are therefore enriched for PPIs that depend on the direct interactions of the domains with the PPI partners.
The complete list of strains, primers, and gRNAs used in this study can be found in Supplementary Tables 1–3. All constructed yeast strains were validated by polymerase chain reaction (PCR) and confirmed by Sanger sequencing of the locus of interest. Bait strains for the DHFR-PCA experiments were constructed as follows. The genes of interest were fused at their genomic 3′ end by replacing the stop codon with a linker ([…]), the DHFR F[1,2] followed by a smaller linker (GGGGS), a 1× FLAG tag ([…]) and the NATMX4 resistance cassette via homologous recombination (all amplified from pAG25-DHFR[1,2]-linker-FLAG). The set of 615 prey strains (DHFR F[3] fusions in the BY4742 background) were retrieved from the Yeast Protein Interactome Collection[43] with the exception of 73 that were reconstructed (Supplementary Tables 1 and 2). Knockout strains were taken from the yeast knockout collection except for ABP1, BEM1, BZZ1, and SLA1, which were reconstructed by replacing the ORFs with the NATMX4 resistance cassette by homologous recombination in the BY4741 background.
Yeast SH3 domain genomic sequences were replaced by CRISPR–Cas9 genome editing. Each SH3 domain (as defined by the SMART database V8.0 except for Ysc84 SH3 (as defined by PROSITE), see Source Data for all SH3 sequences and Supplementary Table 1 for primers used) was specifically targeted by one gRNA[46]. Yeast competent cells were co-transformed with a pCAS plasmid (Addgene plasmid 60847[47]) expressing both the gRNA of interest and Streptococcus pyogenes Cas9[46] and a donor DNA sequence (stuffer) with 60 bp homology arms surrounding the SH3 DNA sequence. The Stuffer DNA was either PCR amplified or digested from a plasmid. The stuffer DNA sequence ([…]) codes for a small flexible linker ([…]) inspired by protein linkers used in structural biology[12],[13]. This type of linker is frequently used for fusing proteins without affecting the structure of the linked proteins.
The overall DHFR-PCA pipeline is based on Tarassov et al.[43] and the procedures have also been published as a visualized protocol. The screens were performed with robotically manipulated pin tools (BM5-SC1, S&P Robotics Inc.). First, the preys were cherry-picked from 96-well plates to omnitrays in a 384 format on YPD + HPH solid media. […]

ABP1 = test: DHFR-PCA on solid medium, bait ABP1 (Fig. 1B); format: cell-based, Saccharomyces cerevisiae; details: bait ABP1, label = prey; 2-4 replicates
From the text: Supplement 41467_2021_21873_MOESM8_ESM.xlsx, sheet "Fig1B" | column: medsize; medrep; Ratio; Score

[2] = bait SLA1-2, DHFR-PCA, Replicates 4 (2 for YCR009C, YDR388W)
[3] = bait SLA1-3, DHFR-PCA, Replicates 4 (2 for YCR009C, YDR388W, YIL033C)

Molecule | medrep (log2 median colony size normalized to plate background, PCA score) [1, 2] | Score ([1]; bait SLA1-2, label = prey) | Ratio (SH3-deleted/WT medrep) ([1]; bait SLA1-2, label = prey) | medrep (log2 median colony size normalized to plate background, PCA score) [1, 3] | Score ([1]; bait SLA1-3, label = prey) | medrep (log2 median colony size normalized to plate background, PCA score) (ABP1)
B1 | 1.835 | 1 | 0.1 | 1.835 | 0 | 2.787
B2 |  |  |  | 4.605 | 0 | 4.13
B3 | 2.135 | 1 | 0.1 | 2.135 | 0 | 2.696
B4 | 2.073 | 1 | 0.1 | 2.073 | 0 | 3.81
